Residue numbers refer to the chain shown, from its start. Numbers in names are those of the source.
B1: VH SEQ ID NO 538 / VL SEQ ID NO 390 (antibody, IgG4, V domains shown)
VH: QVQLQESGPGLVEPSQTLSLTCTVSGYSITSDSAWSWIRQPPGKKLEWIGYIQYSGSTNYNPSLKSRVTISRDTSKNQFSLKLSSVTAADTAVYYCARSVNYYGNSFAVGYWGQGTLVTVSS
VL: EIVLTQSPATLSLSPGERATLSCRASQGVSDYLAWYQQKPGEAPRLLIKYASQPATGIPARFSGSGSGTDFTLTISSLEPEDFAVYYCQNGHSFPLTFGQGTKLEIK
notes: humanized 11F2; IgG4 S228P/kappa
B2: VH SEQ ID NO 538 / VL SEQ ID NO 470 (antibody, IgG4, V domains shown)
VH: B1 VH
VL: B1 VL with A34H, E42Q
notes: as for B1
B3: VH SEQ ID NO 546 / VL SEQ ID NO 342 (antibody, IgG4, V domains shown)
VH: B1 VH with L117S
VL: B1 VL with V29I, A34H, E42Q, A51T, T69R, Q100A, I106L
notes: as for B1
B4: VH SEQ ID NO 538 / VL SEQ ID NO 454 (antibody, IgG4, V domains shown)
VH: B1 VH
VL: B1 VL with A34H
notes: as for B1
B5: VH SEQ ID NO 546 / VL SEQ ID NO 326 (antibody, IgG4, V domains shown)
VH: B1 VH with L117S
VL: B1 VL with V29I, A34H, A51T, A84G, Q100A, I106L
notes: as for B1
B6: VH SEQ ID NO 538 / VL SEQ ID NO 446 (antibody, IgG4, V domains shown)
VH: B1 VH
VL: B1 VL with E42Q, A51T
notes: as for B1
B7: VH SEQ ID NO 530 / VL SEQ ID NO 494 (antibody, IgG4, V domains shown)
VH: B1 VH with T30S, K45G
VL: B1 VL with A34H, E42Q, F83V
notes: as for B1
B8: VH SEQ ID NO 538 / VL SEQ ID NO 326 (antibody, IgG4, V domains shown)
VH: B1 VH
VL: B1 VL with V29I, A34H, A51T, A84G, Q100A, I106L
notes: as for B1
B9: VH SEQ ID NO 538 / VL SEQ ID NO 382 (antibody, IgG4, V domains shown)
VH: B1 VH
VL: B1 VL with V29L, A34H
notes: as for B1
B10: VH SEQ ID NO 546 / VL SEQ ID NO 414 (antibody, IgG4, V domains shown)
VH: B1 VH with L117S
VL: B1 VL with E42Q
notes: as for B1
B11: VH SEQ ID NO 546 / VL SEQ ID NO 390 (antibody, IgG4, V domains shown)
VH: B1 VH with L117S
VL: B1 VL
notes: as for B1
B12: VH SEQ ID NO 538 / VL SEQ ID NO 374 (antibody, IgG4, V domains shown)
VH: B1 VH
VL: B1 VL with V29L, E42Q, A51T
notes: as for B1
B13: VH SEQ ID NO 530 / VL SEQ ID NO 478 (antibody, IgG4, V domains shown)
VH: B1 VH with T30S, K45G
VL: B1 VL with A34H, E42Q, N90Q
notes: as for B1
B14: VH SEQ ID NO 538 / VL SEQ ID NO 398 (antibody, IgG4, V domains shown)
VH: B1 VH
VL: B1 VL with A51T
notes: as for B1
B15: VH SEQ ID NO 538 / VL SEQ ID NO 478 (antibody, IgG4, V domains shown)
VH: B1 VH
VL: B1 VL with A34H, E42Q, N90Q
notes: as for B1
B16: VH SEQ ID NO 538 / VL SEQ ID NO 350 (antibody, IgG4, V domains shown)
VH: B1 VH
VL: B1 VL with V29I, A34H, E42Q, A51T, Q100A, I106L
notes: as for B1
B17: VH SEQ ID NO 538 / VL SEQ ID NO 358 (antibody, IgG4, V domains shown)
VH: B1 VH
VL: B1 VL with V29I, A34H, E42Q, A51T
notes: as for B1
B18: VH SEQ ID NO 546 / VL SEQ ID NO 366 (antibody, IgG4, V domains shown)
VH: B1 VH with L117S
VL: B1 VL with V29L
notes: as for B1
B19: VH SEQ ID NO 546 / VL SEQ ID NO 318 (antibody, IgG4, V domains shown)
VH: B1 VH with L117S
VL: B1 VL with V29I, A34H, A51T
notes: as for B1
B20: VH SEQ ID NO 538 / VL SEQ ID NO 310 (antibody, IgG4, V domains shown)
VH: B1 VH
VL: B1 VL with V29I, E42Q
notes: as for B1
B21: VH SEQ ID NO 546 / VL SEQ ID NO 334 (antibody, IgG4, V domains shown)
VH: B1 VH with L117S
VL: B1 VL with V29I, A34H, E42Q
notes: as for B1
B22: VH SEQ ID NO 530 / VL SEQ ID NO 486 (antibody, IgG4, V domains shown)
VH: B1 VH with T30S, K45G
VL: B1 VL with A34H, E42Q, A84G
notes: as for B1
B23: VH SEQ ID NO 538 / VL SEQ ID NO 406 (antibody, IgG4, V domains shown)
VH: B1 VH
VL: B1 VL with E42Q, Q100A
notes: as for B1

Biological target: T1, recombinant human activated Factor VII (FVIIa) (human, UniProt P08709 61-212; P08709 213-466, ten glutamate residues of the Gla domain may be gamma-carboxylated)
T1 construct: chains tethered by a disulfide bond; also called Factor VIIa; rFVIIa
T1 sequence 1: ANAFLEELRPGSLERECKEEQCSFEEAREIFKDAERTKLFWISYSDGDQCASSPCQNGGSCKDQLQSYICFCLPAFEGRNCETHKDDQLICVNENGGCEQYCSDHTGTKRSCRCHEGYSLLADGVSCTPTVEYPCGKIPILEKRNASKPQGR
T1 sequence 2: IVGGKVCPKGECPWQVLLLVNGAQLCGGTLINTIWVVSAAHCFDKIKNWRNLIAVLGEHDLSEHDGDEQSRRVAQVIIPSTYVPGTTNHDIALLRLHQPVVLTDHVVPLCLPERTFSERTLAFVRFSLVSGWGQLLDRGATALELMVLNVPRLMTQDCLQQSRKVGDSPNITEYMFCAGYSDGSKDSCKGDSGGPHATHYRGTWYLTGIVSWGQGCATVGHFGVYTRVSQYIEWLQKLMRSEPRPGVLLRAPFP
Assay: BLI (Fortebio)

| Binder | Kd [nM] |
| --- | --- |
| B1 | 7 |
| B2 | 1 |
| B3 | 1.2 |
| B4 | 1.2 |
| B5 | 0.81 |
| B6 | 12 |
| B7 | 1 |
| B8 | 0.58 |
| B9 | 1.2 |
| B10 | 7.1 |
| B11 | 7 |
| B12 | 7.4 |
| B13 | 1.4 |
| B14 | 11 |
| B15 | 1.8 |
| B16 | 1 |
| B17 | 0.89 |
| B18 | 5.7 |
| B19 | 0.86 |
| B20 | 2.5 |
| B21 | 1.1 |
| B22 | 0.99 |
| B23 | 6.1 |
